Changes are numbered by the printed parent chain.
B1: A44-hv1 (antibody, V domains shown)
VH: EMTLKESGPTLVKPTQTLSLTCSVTGDSMTNGYWNWIRKFPGKALEYMGYITYSGSTYYNPSLKGRISITRNTSKNQYYLTLSSVTTVDTATYYCARWHYGSPYYFDYWGQGTTLTVSS
VL: DIKMTQSPSSLSASVGDRVTITCKASQDINSYLSWLQQKPGKSPKTLIYRANRSVDGVPSRFSGSGSGQDYSLTISSLQPEDLGIYYCLQYDEFPPTFGGGTKLEIK
notes: humanized A44, HEK293; also called LC1a x HC1a; variant 1
B2: A44-hv2 (antibody, V domains shown)
VH: B1 VH with T3Q, K5Q, T10G, T15S, Q16E, A44G, T81K, V88A
VL: B1 VL with L11V, A13V, V15P, D17Q, R18T, K42Q, P80A, E81M, L83E, E105T
notes: humanized A44, HEK293; constant regions as for A44-hv1; also called LC1b x HC1b; variant 2
B3: A44-hv9 (antibody, V domains shown)
VH: QMQLQESGPGLVKPSETLSLTCTVSGDSMTNGYWNWIRQPPGKGLEYMGYITYSGSTYYNPSLKSRITISRDTSKNQYSLKLSSVTAADTAVYYCARWHYGSPYYFDYWGQGTLVTVSS
VL: B1 VL with K3Q, S43A, S72T, L73F, L83I, G84A, I85T, L104V
notes: humanized A44, HEK293; constant regions as for A44-hv1; also called LC5b x HC5b; variant 9
B4: A44-hv6 (antibody, V domains shown)
VH: B1 VH with E1Q, T25S, K39Q, S68T, N72D
VL: B1 VL with G84A, I85T
notes: humanized A44, HEK293; constant regions as for A44-hv1; also called LC3 x HC3; variant 6
B5: A44-hv5 (antibody, V domains shown)
VH: B1 VH with N31Q
VL: B1 VL with N52Q, D56E
notes: humanized A44, HEK293; constant regions as for A44-hv1; also called LC2 x HC2b; variant 5
B6: A44-hv4 (antibody, V domains shown)
VH: B1 VH with N31Q
VL: B1 VL
notes: humanized A44, HEK293; constant regions as for A44-hv1; also called LC1a x HC2b; variant 4
B7: A44-hv7 (antibody, V domains shown)
VH: B1 VH with E1Q, T25S, D27E, N31Q, K39Q, S68T, N72Q, D89E
VL: B1 VL with N52Q, D56E, G84A, I85T
notes: humanized A44, HEK293; constant regions as for A44-hv1; also called LC4 x HC4; variant 7

Target: T1, cynomolgus PAI-1 (cynomolgus monkey (Macaca fascicularis), UniProt P05121 24-402 (human entry))
T1 construct: produced in-house in E. coli (non-glycosylated); active cyno PAI-1 in the assays; also called cyno PAI-1; cPAI-1
Assay: Biacore

T1 sequence (P05121 other isoform, or with tags, fused parts or gaps limits assumed): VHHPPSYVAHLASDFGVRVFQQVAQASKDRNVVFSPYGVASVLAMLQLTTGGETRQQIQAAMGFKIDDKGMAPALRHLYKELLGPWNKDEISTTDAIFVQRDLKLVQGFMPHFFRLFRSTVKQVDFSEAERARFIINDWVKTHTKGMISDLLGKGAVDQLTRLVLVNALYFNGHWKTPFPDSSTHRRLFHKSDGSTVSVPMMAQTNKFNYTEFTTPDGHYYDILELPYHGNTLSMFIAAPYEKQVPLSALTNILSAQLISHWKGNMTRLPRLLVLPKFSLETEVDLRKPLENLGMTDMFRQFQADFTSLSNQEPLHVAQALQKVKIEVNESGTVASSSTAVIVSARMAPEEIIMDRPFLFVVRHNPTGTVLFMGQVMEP

| Binder | binding result |
| --- | --- |
| B1 | binds |
| B2 | binds |
| B3 | binds |
| B4 | binds |
| B5 | binds |
| B6 | binds |
| B7 | binds |

Source: patent US20160200831A1 (Sanofi, published 2016)
